Laboratory results reported in PMC7163869.

Biological target: Chikungunya virus-like particles (strain 37997) (chikungunya virus (strain 37997))
Assay: BLI

Molecule: Mouse Mxra8 ectodomain 23-296 (from UniProt Q9DBV4 23-296) (domain or fragment)
- Kd: 66.4 nM

B1: Cattle Δmoo Mxra8 ectodomain (domain or fragment)
chain: VLLSSGPSGPATSDRSVVSESTVSWAAGARAVLRCQSPRMVWTQDRLHDRQRVVHWDLSGSKAGGPARRLVDMYSTGEQRVYEPRDRGRLLLPPSAFHDGNFSLFIRAVEETDEGLYTCNLHHHYCHLYESLAVSLEVTDDPRAAGAHWDGEKEVLAVERGAPALLTCVNRAHVWTDRHLEEAQQVVHWDRQPPGVPHDRADRLLDLYASGERRAYGPPFLRDRVAVEADAFARGDFSLLIDPVEPADEGTYSCHLHHHYCGLHERRVFHLRVTEPAARPPPPPRDSPGNGSSHSGAPGPGARDPTLTRGRSVINVIVPEGRAHFFQQ
- Kd: 72.3 nM
